Consider two sequences from US20240317816A1, “PEPTIDES FOR IMMUNOTHERAPY” (Genevive, Inc., priority 2021, published 2024).

Assay [1] has as its system moDCs and allogeneic T cells. In words: Mixed lymphocyte reaction (MLR) cytokine release. It is filed as cell-based. As to the method: Twenty-four hours later, T cells isolated from allogeneic donors were added to the moDCs with the peptide of interest, SG-3-00802 or SG-3-05021, alone or in combination with anti-PD-L1 monoclonal antibody. The co-culture of cells was incubated for 72 hours, after which cell supernatants were harvested and analyzed for secretion of cytokines, IFN-g and TNF-α. […] Data shown for experiment conducted in >4 Donor PBMCs.

The next assay deals with T1, CXCR4 (Homo sapiens, UniProt P61073).
T1 construct: host or cells: U2OS
T1 sequence (P61073 whole entry): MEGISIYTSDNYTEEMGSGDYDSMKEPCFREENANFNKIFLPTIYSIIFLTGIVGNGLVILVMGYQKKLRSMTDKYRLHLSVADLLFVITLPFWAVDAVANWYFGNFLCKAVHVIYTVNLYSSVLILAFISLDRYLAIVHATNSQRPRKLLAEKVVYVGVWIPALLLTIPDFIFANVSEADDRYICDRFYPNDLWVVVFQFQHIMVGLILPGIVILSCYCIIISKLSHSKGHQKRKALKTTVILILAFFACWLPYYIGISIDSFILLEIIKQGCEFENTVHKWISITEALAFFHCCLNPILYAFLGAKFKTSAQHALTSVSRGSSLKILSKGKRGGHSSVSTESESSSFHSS
Put plainly: SelectScreen agonist/antagonist assay, chemokine receptor expressing U2OS cells. It is filed as cell-based.

For assay [2], the target named is T2, CXCR3 (Homo sapiens, UniProt P49682).
T2 sequence (P49682 1-368): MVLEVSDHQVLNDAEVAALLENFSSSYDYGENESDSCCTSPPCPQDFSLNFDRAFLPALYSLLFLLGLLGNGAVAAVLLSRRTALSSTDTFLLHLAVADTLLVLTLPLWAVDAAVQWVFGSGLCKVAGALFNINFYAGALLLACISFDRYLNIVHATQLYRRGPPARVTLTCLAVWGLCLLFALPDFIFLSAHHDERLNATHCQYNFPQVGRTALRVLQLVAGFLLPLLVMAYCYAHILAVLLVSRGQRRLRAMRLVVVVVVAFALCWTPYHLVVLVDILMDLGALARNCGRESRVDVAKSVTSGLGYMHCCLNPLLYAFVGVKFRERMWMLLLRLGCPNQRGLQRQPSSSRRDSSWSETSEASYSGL
Put plainly: SelectScreen agonist/antagonist assay, CXCR3-bla U2OS cells. It is filed as cell-based. Also on record: TEV protease site; Gal4-VP16 transcription factor ('Ga14-VP16' [sic]); Tango cell line; host or cells: Tango GPCR-bla U2OS. As to conditions: for SelectScreen Antagonist Mode: control agonist I-TAC at EC80. As to the method: (§1) In agonist assays, chemokine receptor expressing U2OS cells are thawed and resuspended in Assay Media (DMEM, 1% dialyzed FBS, 25 mM HEPES pH 7.3, 0.1 mM NEAA, 100 U/mL/100 μg/mL Pen/Strep) to a concentration of 312,500 cells/mL. 4 μL of a 10× serial dilution of I-TAC (control agonist starting concentration, 500 nM) or compounds are added to appropriate wells of a 384-well TC-Treated assay plate. 32 μL of cell suspension (10,000 cells) is added to each well. 4 μL of Assay Media is added to all wells to bring the final assay volume to 40 μL. The plate is incubated for 16-24 hours at 37° C./5% CO2 in a humidified incubator. 8 μL of 1 μM Substrate+Solution D Loading Solution is added to each well and the plate is incubated for 2 hours at room temperature. The plate is read on a fluorescence plate reader.
In antagonist assays, CXCR3-bla U2OS cells were thawed and prepared as described above for the Agonist assay. 4 μL of 10× compounds or assay media was added to appropriate wells of a TC-Treated assay plate. 32 μL of cell suspension was added to the wells and pre-incubated at 37° C./5% CO2 in a humidified incubator with compounds and control antagonist titration for 30 minutes. 4 μL of 10× control agonist I-TAC at the pre-determined EC80 concentration is added to wells containing the control antagonist or compounds. The plate is incubated for 16-24 hours at 37° C./5% CO2 in a humidified incubator. 8 μL of 1 μM Substrate+Solution D Loading Solution is added to each well and the plate is incubated for 2 hours at room temperature. The plate is read on a fluorescence plate reader.
(§2) Tango™ CXCR3-bla U2OS cells contain the human chemokine (C-X-C motif) receptor 3 linked to a TEV protease site and a Ga14-VP16 transcription factor stably integrated into the Tango™ GPCR-bla U2OS cell line. This parental cell line stably expresses a beta-arrestin/TEV protease fusion protein and the beta-lactamase reporter gene under the control of a UAS response element. The Tango™ CXCR3-bla U2OS cells have been functionally validated for a response to I-TAC (CXCL11).

Another assay addresses T3, CCR7 (Homo sapiens, UniProt P32248).
T3 construct: expressed in transfected cells
T3 sequence (P32248 25-378): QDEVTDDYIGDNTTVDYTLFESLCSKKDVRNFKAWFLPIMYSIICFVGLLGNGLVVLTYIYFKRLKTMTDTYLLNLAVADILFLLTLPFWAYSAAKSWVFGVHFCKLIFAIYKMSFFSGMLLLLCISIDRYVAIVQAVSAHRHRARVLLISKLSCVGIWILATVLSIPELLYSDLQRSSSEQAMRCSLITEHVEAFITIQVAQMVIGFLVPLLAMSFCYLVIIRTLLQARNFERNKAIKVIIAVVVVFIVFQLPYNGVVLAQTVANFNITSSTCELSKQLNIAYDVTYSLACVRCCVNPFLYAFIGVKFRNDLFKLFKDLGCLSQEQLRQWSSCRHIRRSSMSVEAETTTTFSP
Put plainly: SelectScreen agonist/antagonist assay, chemokine receptor expressing U2OS cells. It is filed as cell-based. As to the method: as §1
In antagonist assays, CXCR3-bla U2OS cells were thawed and prepared as described above for the Agonist assay. 4 μL of 10× compounds or assay media was added to appropriate wells of a TC-Treated assay plate. 32 μL of cell suspension was added to the wells and pre-incubated at 37° C./5% CO2 in a humidified incubator with compounds and control antagonist titration for 30 minutes. 4 μL of 10× control agonist I-TAC at the pre-determined EC80 concentration is added to wells containing the control antagonist or compounds. […] The plate is read on a fluorescence plate reader.

Assay [3] has as its target T2, CXCR3. In words: Positive allosteric modulator assay method 2 (PAM2), CXCR3-bla U2OS. It is filed as cell-based. Also on record: TEV protease site; Gal4-VP16 transcription factor ('Ga14-VP16' [sic]); Tango cell line; host or cells: Tango GPCR-bla U2OS. As to conditions: varying CXCL11, fixed peptide concentration.
From the text: as §2
Positive allosteric modulation was confirmed with an additional test method using a dose response setting for CXCL11. In positive allosteric modulator assay method 2 (PAM2), cells were diluted in Assay Media to an appropriate cell density, and were added to the assay plate. CXCR3-bla U2OS were stimulated with varying concentrations of CXCL11 ligand and a pre-determined fixed concentration of either SG-3-00802 or SG-3-06683 and incubated for 30 minutes. Ligand (CXCL9, CXCL10, or CXCL11) was added at increasing concentrations to wells containing the test compound.

The next assay deals with Chemokine receptors. In words: LRC-TriCEPS LC-MS/MS identification of binding partners. Particulars: living cells, LRC-TriCEPS crosslinker. As to the method:
SG-3-00802 binding partners were identified using the mass spectrometry-based proteomics (LC MS/MS)-based LRC-TriCEPS™ technology from DualSystems. To enrich for binding partners the ligand was coupled with the LRC-TriCEPS™ crosslinker and incubated with living cells that expressed target receptors. The enriched proteins were purified and processed for analysis by LC-MS/MS. A parallel experiment using transferrin as control ligand enabled the relative quantification of the enriched proteins. Putative binding partners of SG-3-00802 enriched over transferrin ligand are depicted in a volcano plot (FIG. 3).

Consider “LGKTDWIEKYFKVKKEKIDKMQRFLQG (peptide for immunotherapy; SG-3-05021)”, for which the IFN-γ secretion entry is “increase in IFN-γ” in assay [1] (after stimulation with anti-CD40, in combination with anti-PD-L1, 72 hours) and “increase in IFN-γ” in assay [1] (after stimulation with anti-CD40, peptide alone, 72 hours). Also, the “SelectScreen Agonist Mode” value with CXCR4 is “no agonistic activity and No”; with CXCR3 [2] it was “no agonistic activity and No”; with CCR7, “no agonistic activity and No”. Moreover, the “SelectScreen Antagonist Mode” value with CXCR3 [2] was “reverse antagonistic activity (sensitization) and PAM”.
Consider “MKVRPSVKPMCEKCKIIRRKGRVMVICENPKHKQRQG [SG-3-00802]”, for which the “SelectScreen Agonist Mode” value with CXCR4 is “no agonistic activity and No”; with CXCR3 [2] it was “weak agonistic activity and No”; with CCR7 it was “weak agonistic activity and No”. Moreover, the “SelectScreen Antagonist Mode” value with CXCR4 is “moderate antagonistic activity and Yes”; with CXCR3 [2], “potent reverse antagonistic activity (sensitization) and PAM”. In addition, the “activity of CXCL11 on the CXCR3 receptor (PAM2)” value with CXCR3 [3] was “enhanced the activity of the endogenous ligand CXCL11”. The “binding partners enriched over transferrin ligand” value in the assay with Chemokine receptors is reported as “Chemokine receptors”.
